Changes are numbered by the printed parent chain.
T1: mouse FcγRII (mouse, UniProt P08101 30-210)
T1 construct: Extracellular domain with C-terminal His tag; also called mFcγRII; mFcgRII
T1 sequence: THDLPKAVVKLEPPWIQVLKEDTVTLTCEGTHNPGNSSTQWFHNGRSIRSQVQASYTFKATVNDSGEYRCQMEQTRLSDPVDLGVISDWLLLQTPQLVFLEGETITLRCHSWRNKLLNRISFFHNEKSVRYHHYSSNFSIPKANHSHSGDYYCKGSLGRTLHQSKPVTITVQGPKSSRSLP

T2: mouse FcγRIII (mouse, UniProt P08508 31-215)
T2 construct: Extracellular domain with C-terminal His tag; also called mFcγRIII; mFcgRIII
T2 chain: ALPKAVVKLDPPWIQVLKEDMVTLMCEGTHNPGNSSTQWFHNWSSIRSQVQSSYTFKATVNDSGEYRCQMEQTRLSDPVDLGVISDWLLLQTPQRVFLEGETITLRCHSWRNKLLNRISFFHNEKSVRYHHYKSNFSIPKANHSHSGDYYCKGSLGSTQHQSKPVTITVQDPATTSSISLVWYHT

B1: MB831 (antibody, mouse IgG1, kappa)
heavy: QVQLQESGPGLVKPSETLSLTCAVSGHSISHDHAWSWVRQPPGEGLEWIGFISYSGITNYNPSLQGRVTISRDNSKNTLYLQMNSLRAEDTAVYYCARSLARTTAMDYWGEGTLVTVSSAKTTPPSVYPLAPGSAAQTNSMVTLGCLVKGYFPEPVTVTWNSGSLSSGVHTFPAVLQSDLYTLSSSVTVPSSTWPSETVTCNVAHPASSTKVDKKIVPRDCGCKPCICEPNEVELVFIFPPKPKDVLTITLTPKVTCVVVDISKDDPEVQFSWFVDDVEVHTAQTQPREEQFNSTFRSVSELPIMHQDWLNGKEFKCRVNSAAFPAFIERTISKTKGRPKAPQVYTIPPPKEQMAKDKVSLTCMITDFFPEDITVEWQWNGQPAENYKNTQPIMDTDGSYFVYSKLNVQKSNWEAGNTFTCSVLHEGLHNHHTEKSLSHSPGK
light: not shown
notes: CH name; VH H237 + CH, L chain MRAL-k0; copies: 2 + 2
B2: MB846 (antibody, mouse IgG1, kappa)
heavy: B1 heavy with K264D, A322D, A323G, F327P, R330K
light: not shown
notes: as for B1
B3: MB856 (antibody, mouse IgG1, kappa)
heavy: B1 heavy with N320D, A322D, A323G, F327Y, R330K
light: not shown
notes: as for B1
B4: MB863 (antibody, mouse IgG1, kappa)
heavy: B1 heavy with K264D, A322D, A323G, F327P, E329Y, R330K
light: not shown
notes: as for B1
B5: MB850 (antibody, mouse IgG1, kappa)
heavy: B1 heavy with A322D, A323G, F327P, E329Y, R330K
light: not shown
notes: as for B1
B6: MB854 (antibody, mouse IgG1, kappa)
heavy: B1 heavy with Q291L, A322D, A323G, F327P, E329Y, R330K
light: not shown
notes: as for B1
B7: MB832 (antibody, mouse IgG1, kappa)
heavy: B1 heavy with F327Y, E329Y, R330K
light: not shown
notes: as for B1
B8: MB834 (antibody, mouse IgG1, kappa)
heavy: B1 heavy with F327P, E329Y
light: not shown
notes: as for B1
B9: MB848 (antibody, mouse IgG1, kappa)
heavy: B1 heavy with N320D, A322D, A323G, F327P, R330K
light: not shown
notes: as for B1
B10: MB857 (antibody, mouse IgG1, kappa)
heavy: B1 heavy with N320D, A322D, A323G, F327P, E329Y, R330K
light: not shown
notes: as for B1
B11: MB853 (antibody, mouse IgG1, kappa)
heavy: B1 heavy with Q291L, A322D, A323G, F327Y, R330K
light: not shown
notes: as for B1
B12: MB833 (antibody, mouse IgG1, kappa)
heavy: B1 heavy with F327Y
light: not shown
notes: as for B1
B13: MB855 (antibody, mouse IgG1, kappa)
heavy: B1 heavy with Q291L, A322D, A323G, F327P
light: not shown
notes: as for B1
B14: MB861 (antibody, mouse IgG1, kappa)
heavy: B1 heavy with K264D, N320D, A322D, A323G, F327P, R330K
light: not shown
notes: as for B1
B15: MB847 (antibody, mouse IgG1, kappa)
heavy: B1 heavy with Q291L, A322D, A323G, F327P, R330K
light: not shown
notes: as for B1
B16: MB851 (antibody, mouse IgG1, kappa)
heavy: B1 heavy with A322D, A323G, F327P
light: not shown
notes: as for B1
B17: MB860 (antibody, mouse IgG1, kappa)
heavy: B1 heavy with A322D, A323G, F327P, E329Y
light: not shown
notes: as for B1
B18: MB858 (antibody, mouse IgG1, kappa)
heavy: B1 heavy with N320D, A322D, A323G, F327P
light: not shown
notes: as for B1
B19: MB849 (antibody, mouse IgG1, kappa)
heavy: B1 heavy with A322D, A323G, F327Y, R330K
light: not shown
notes: as for B1
B20: MB835 (antibody, mouse IgG1, kappa)
heavy: B1 heavy with K264D, F327P, R330K
light: not shown
notes: as for B1
B21: MB852 (antibody, mouse IgG1, kappa)
heavy: B1 heavy with Q291L, N320D, A322D, A323G, F327P, R330K
light: not shown
notes: as for B1
B22: MB862 (antibody, mouse IgG1, kappa)
heavy: B1 heavy with K264D, A322D, A323G, F327Y, R330K
light: not shown
notes: as for B1
B23: MB859 (antibody, mouse IgG1, kappa)
heavy: B1 heavy with A322D, A323G, F327Y
light: not shown
notes: as for B1

Assays:
mouse FcγRII [1] = target: T1, mouse FcγRII; test: SPR (Biacore T200); KD of H237-mIgG1/MRAL-k0 / KD of variant
mouse FcγRIII [2] = target: T2, mouse FcγRIII; test: as above
mouse FcγRII [3] = target: T1, mouse FcγRII; test: SPR (Biacore T200); KD of H237-MB630/MRAL-k0 / KD of variant
mouse FcγRIII [4] = target: T2, mouse FcγRIII; test: as above

Binder | relative mFcγRII-binding activity (mIgG1 = 1) (mouse FcγRII [1]) | relative mFcγRIII-binding activity (mIgG1 = 1) (mouse FcγRIII [2]) | Relative mFcγRII-binding activity (MB630 = 1) (mouse FcγRII [3]) | Relative mFcγRIII-binding activity (MB630 = 1) (mouse FcγRIII [4])
B1 | 22.3 fold | 0.39 fold | 1.7 fold | 1.71 fold
B2 | 72.1 fold | 2.12 fold | 6.8 fold | 11.6 fold
B3 | 44.8 fold | 0.91 fold | 4.23 fold | 4.95 fold
B4 | 81.3 fold | 2.33 fold | 7.68 fold | 12.7 fold
B5 | 43.7 fold | 0.79 fold | 4.12 fold | 4.3 fold
B6 | 50.6 fold | 1.25 fold | 4.77 fold | 6.84 fold
B7 | 5.2 fold | 0.09 fold | 0.4 fold | 0.4 fold
B8 | 17 fold | 0.29 fold | 1.29 fold | 1.25 fold
B9 | 45.8 fold | 0.92 fold | 4.33 fold | 5 fold
B10 | 44.6 fold | 0.9 fold | 4.21 fold | 4.92 fold
B11 | 35 fold | 1.13 fold | 3.31 fold | 6.2 fold
B12 | 25.3 fold | 0.45 fold | 1.92 fold | 1.94 fold
B13 | 36.2 fold | 1.14 fold | 3.41 fold | 6.21 fold
B14 | 76.8 fold | 2.41 fold | 7.25 fold | 13.2 fold
B15 | 43.7 fold | 1.33 fold | 4.12 fold | 7.24 fold
B16 | 43.8 fold | 0.96 fold | 4.13 fold | 5.23 fold
B17 | 39.6 fold | 0.75 fold | 3.74 fold | 4.07 fold
B18 | 62 fold | 1.27 fold | 5.86 fold | 6.92 fold
B19 | 31.4 fold | 0.65 fold | 2.97 fold | 3.54 fold
B20 | 26.3 fold | 0.7 fold | 2 fold | 3.05 fold
B21 | 61 fold | 1.83 fold | 5.76 fold | 10 fold
B22 | 67.9 fold | 1.98 fold | 6.41 fold | 10.8 fold
B23 | 34.2 fold | 0.71 fold | 3.22 fold | 3.9 fold

Reference: US20150203577A1 (Chugai, published 2015)
